Measured values from patent publication US20250059285A1 (ARGENX, published 2025).
Substitutions are numbered along the chain they refer to.

Key:
human Gal10-His [1] = molecular target: T1, human Gal10-His (human, UniProt Q05315 2-142, limits assumed); assay: SPR Biacore 3000, Fab periplasmic extract on Gal10-His-coated CM5
T1 construct: also called hGal10-His; human Gal10-His tagged; not shown: His tag
T1 sequence: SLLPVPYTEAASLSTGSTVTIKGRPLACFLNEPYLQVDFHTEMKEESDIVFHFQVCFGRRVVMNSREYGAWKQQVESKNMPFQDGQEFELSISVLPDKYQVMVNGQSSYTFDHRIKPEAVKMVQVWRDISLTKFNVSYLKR
Method: The binding properties of the Fabs (periplasmic extract) to human Gal10-His were analyzed by SPR with a Biacore 3000 instrument. For this purpose, the diluted periplasmic extract was applied on a CM5 chip coated with human Gal10-His. As a positive control, a 20 nM injection of the purified g7B07 clone in the human Fab backbone was included at the beginning and end of the run.
The binding capacity of the Fab periplasmic extract was analyzed by SPR technology using a Biacore 3000. Briefly, diluted periplasmic extracts were injected on CM5 chip coated with 2500 RU of Gal10-His. The amplitude of the binding (Rmax), the dissociation (off-rate) of each clone, as well as the off-rate fold change compared to the controls (g7B07 and g7B07_N53A) are indicated. Clones g20H09 and g23H09 had similar or better off rate compared to the control g7B07 (Table 10). The randomized part of the CDR2 sequence is underlined (Table 10).

human Gal10-His [2] = molecular target: T1, human Gal10-His; assay: competition ELISA on coated Gal10-His; hFab 20 ug/mL, competitor g7B07-hFab-Biot, streptavidin-HRP
Method: An epitope binning analysis of the humanized Fab clones was carried out in comparison with the humanized Fab of g7B07.
For this experiment, a sub-optimal concentration of the biotinylated clone g7B07-humanized Fab was added to the Gal10 coated plate and pre-incubated with the selected clones. The percentage competition with g7B07 was then determined (Table 17). Motavizumab (Mota) in a human Fab backbone was used as a negative control (0% competition). Clone g7B07 was used as the positive control for competition and was therefore set as the 100% competition value. The anti-human specific clone 1D11 (binding to Tyrosine 69 residue) was included in the tested panel as a negative control for competition with 7B07 for Gal10 binding because it was known that clone 1D11 binds to the opposite side of Gal10 (including Tyrosine 69).

human Gal10-His [3] = molecular target: T1, human Gal10-His; assay: SPR Biacore 3000, purified hFab on captured Gal10-His
Method: (§1) The binding properties of the selected Fab clones to human Gal10 were analyzed via a capture method established on a Biacore 3000 instrument. Two concentrations of the selected Fab clones were tested on human Gal10-His immobilized on a CM5 chip coated with a monoclonal anti-His. As controls, the clone g7B07 and g7B07_N53A were injected at the beginning and the end of the run. Briefly, a CM5 chip was coated with a monoclonal anti-His antibody (4000 RU), then a fixed concentration of the human Gal10-His (25 μg/mL) was captured on the anti-His chip before receiving two concentrations of the clones in the human Fab backbone.

human Gal10-His [4] = molecular target: T1, human Gal10-His; assay: SPR slope against calibrators on captured Gal10-His; sample 2 weeks at 37 C
Method: (§2) The binding properties of the seven selected clones following two weeks of temperature stress was analysed using an optimized capture method on a Biacore 3000 instrument. The binding properties of the stressed samples were determined, compared to the calibration point, and expressed as a percentage of Relative Activity (% RA).
(§3) Briefly, a capture method was set-up on a Biacore 3000 instrument. For this purpose, a CM5 chip was coated with a monoclonal anti-His antibody (4000 RU), then a fixed concentration of the human Gal10-His (25 μg/mL) was captured on the anti-His chip before receiving duplicate injections of the calibrators, QC samples and temperature stressed samples of each clone. The slope of each injected sample was then calculated using the BIA evaluation software. Concentrations of the QC samples and temperature stressed samples were back-calculated by interpolating the obtained slopes of these samples to the calibrator curve. Obtained values were within +/−20% of the nominal concentration of the tested samples and are expressed as average relative accuracy (avg % RA) (Table 13).

human Gal10-His [5] = molecular target: T1, human Gal10-His; assay: SPR slope against calibrators on captured Gal10-His; T0 sample
Method: as §2, §3

[6] = molecular target: T2, cynomolgus Gal10-His (WGS isoform) (cynomolgus); assay: SPR Biacore 3000, hFab on cynomolgus Gal10-His (WGS) captured by anti-His CM5
T2 construct: also called cynomolgus antigen
Method: (§4) The binding properties of the selected clones to human and cynomolgus Gal10 was analyzed via a capture method established on a Biacore 3000 instrument.
(§5) For this purpose, two approaches were used. In the first, two concentrations of the selected clones were applied on cynomolgus (WGS isoform) Gal10-His capture on a CM5 chip coated with a monoclonal anti-His antibody. The second approach involved a serial dilution that was applied on human or cynomolgus (WGS isoform) Gal10-His in the same set-up.

human Gal10-His [7] = molecular target: T1, human Gal10-His; assay: SPR Biacore 3000, hFab on captured human Gal10-His; column head prints (M), the text gives nM
Method: as §4, §5

human Gal10-His [8] = molecular target: T1, human Gal10-His; assay: SPR Biacore 3000, hFab on human Gal10-His captured by anti-His CM5
Method: as §4, §5

human Gal10-His [9] = molecular target: T1, human Gal10-His; assay: SPR Biacore 3000, purified hFab (2 conc.) on Gal10-His captured by anti-His CM5
Method: as §1

[10] = molecular target: T2, cynomolgus Gal10-His (WGS isoform); assay: SPR Biacore 3000, hFab on captured cynomolgus Gal10-His (WGS); column head prints (M), the text gives nM
Method: as §4, §5

human Gal10-His [11] = molecular target: T1, human Gal10-His; assay: SPR, overview table of lead Fab candidates
human Gal10-His [12] = molecular target: T1, human Gal10-His; assay: SPR against T0 reference; sample 4 weeks at 37 C
Method: (§6) The functional active concentration of the candidates was then assessed by SPR on a Biacore 3000 instrument (FIG. 4). All samples were evaluated with methods meeting the standard qualification criteria. Aliquots were tested at predefined test concentrations against titration curves from reference samples (T0, −80° C. storage) and in the presence of quality control (QC) samples covering a range of 70-130% relative activity (% RA) towards the reference material.
(§7) comparison/reference ⁽¹⁾ samples correspond to aliquots kept at +37° C. for 4 weeks ⁽²⁾ samples correspond to aliquots kept at +5° C. for 4 weeks prior to nebulization. In brief, samples were nebulized with an Aerogen Solo active vibrating mesh nebulizer that converted a drug solution into an inhalable aerosol. Three different devices for each time-point were used per clone and results are reported by the device (nebulizer) serial number. In case of device fouling, indicated by longer nebulization times […]

human Gal10-His [13] = molecular target: T1, human Gal10-His; assay: SPR against T0 reference; sample 4 weeks at 5 C, then nebulized
Method: as §6, §7

[14] = molecular target: T3, recombinant human Charcot-Leyden crystals (crystalline galectin-10) (human, UniProt Q05315 2-142, limits assumed); assay: cell-based or functional assay
T3 sequence: T1 sequence

B1: g20B05 (Fab, periplasmic extract) (Fab, V domains shown)
VH: EVQLLESGGGLVQPGGSLRLSCAASGFTFRSYDMSWVRQAPGKGLEWVSAIKPVGITYYADSVKGRFTISRDNSKNTLYLQMNSLRAEDTAVYYCATTHGIGTLGFGSWGQGTLVTVSS
VL: SYELTQPLSVSVALGQTARITCDGNNIGSKSAQWYQQKPGQAPVLVIYADEYRPEGIPERFSGSNSGNTATLTISRAQAGDEADYYCQVWDGSAAVFGGGTQLTVL
notes: X3 library; VH assembled by inference
Fold off-rate compared to g7B07 (human Gal10-His [1]): 3.3 fold | koff (human Gal10-His [1]): 0.023 s⁻¹

B2: g24F02 (human Fab) (Fab, V domains shown)
VH: EVQLLESGGGLVQPGGSLRLSCAASGFTFSSYAMSWVRQAPGKGLEWVSAINNGGGSTSYADSVKGRFTISRDNSKNTLYLQMNSLRAEDTAVYYCAKGLRVGVLGFDYWGQGTLVTVSS
VL: B1 VL
notes: Human Fab backbone (human CH1, human lambda CL); also called germlined 24F02
% Competition against g7B07-Biot (human Gal10-His [2]): 96.5% | Mean OD value (human Gal10-His [2]): 0.26 OD | fold better affinity than g7B07 (human Gal10-His [3]): 4.7 fold | % Relative Activity (RA) on Biacore (human Gal10-His [4]): 175% | % Relative Activity (RA) on Biacore (human Gal10-His [5]): 101% | Amplitude R0 [6]: 566 RU | koff [6]: 0.0078 s⁻¹ | kon [6]: 1.4e+06 M⁻¹ s⁻¹ | Kd (human Gal10-His [7]): 1.49 nM | Amplitude R0 (human Gal10-His [8]): 644 RU | koff (human Gal10-His [8]): 0.0016 s⁻¹ | kon (human Gal10-His [8]): 1.1e+06 M⁻¹ s⁻¹ | Kd (human Gal10-His [9]): 2 nM | kd-fold drop vs g7B07 (human Gal10-His [9]): 2.8 fold | koff (human Gal10-His [9]): 0.0016 s⁻¹ | kon (human Gal10-His [9]): 830000 M⁻¹ s⁻¹ | Kd [10]: 5.4 nM

B3: g21F11 (Fab, periplasmic extract) (Fab, V domains shown)
VH: EVQLLESGGGLVQPGGSLRLSCAASGFTFRSYDMSWVRQAPGKGLEWVSAIHTPMTYYADSVKGRFTISRDNSKNTLYLQMNSLRAEDTAVYYCATTHGIGTLGFGSWGQGTLVTVSS
VL: B1 VL
notes: X4 library; VH assembled by inference
Fold off-rate compared to g7B07 (human Gal10-His [1]): 5.1 fold | koff (human Gal10-His [1]): 0.035 s⁻¹

B4: g23E05 (Fab, periplasmic extract) (Fab, V domains shown)
VH: EVQLLESGGGLVQPGGSLRLSCAASGFTFRSYDMSWVRQAPGKGLEWVSAIRTFEHHTYYADSVKGRFTISRDNSKNTLYLQMNSLRAEDTAVYYCATTHGIGTLGFGSWGQGTLVTVSS
VL: B1 VL
notes: X6 library; VH assembled by inference
Fold off-rate compared to g7B07 (human Gal10-His [1]): 1.8 fold | koff (human Gal10-His [1]): 0.013 s⁻¹

B5: g7B07_N53A (human Fab) (Fab, V domains shown)
VH: B4 VH with R52K, T53A, F54G, E55G, H56G, H57I
VL: B1 VL
notes: VH assembled by inference as for g7B07; Human Fab backbone; also called g7B07_N53A (mean)
Kd (human Gal10-His [11]): 145 nM | koff (human Gal10-His [11]): 0.079 s⁻¹ | % relative activity by SPR (human Gal10-His [12]): 95% | Amplitude R0 [6]: 30 RU | koff [6]: 0.21 s⁻¹ | kon [6]: 510000 M⁻¹ s⁻¹ | Kd (human Gal10-His [7]): 145 nM | Amplitude R0 (human Gal10-His [8]): 119 RU | koff (human Gal10-His [8]): 0.079 s⁻¹ | kon (human Gal10-His [8]): 540000 M⁻¹ s⁻¹ | Kd (human Gal10-His [9]): 144 nM | kd-fold drop vs g7B07 (human Gal10-His [9]): 0.06 fold | koff (human Gal10-His [9]): 0.078 s⁻¹ | kon (human Gal10-His [9]): 640000 M⁻¹ s⁻¹ | Kd [10]: 417 nM | % relative activity by SPR (human Gal10-His [13]): 94% | crystal dissolution % Relative Activity towards the reference T0 after 2 h, nebulized [14]: 53% | crystal dissolution % Relative Activity towards the reference T0 after 2 h, stressed [14]: 82% | recGal10 crystal dissolution EC50 (T2 h), Assay 1, nebulized [14]: 584 µg/mL | recGal10 crystal dissolution EC50 (T2 h), Assay 1, stressed (4 W at 37 C) [14]: 379 µg/mL | recGal10 crystal dissolution EC50 (T2 h), Assay 1, unstressed (T0) [14]: 309 µg/mL

B6: g23G11 (Fab, periplasmic extract) (Fab, V domains shown)
VH: B4 VH with R52Q, T53K, F54T, E55I, H56V, H57P
VL: B1 VL
notes: as for B4
Fold off-rate compared to g7B07 (human Gal10-His [1]): 2.6 fold | koff (human Gal10-His [1]): 0.018 s⁻¹

B7: g21B01 (Fab, periplasmic extract) (Fab, V domains shown)
VH: B3 VH with H52S, T53G, P54A, M55L
VL: B1 VL
notes: as for B3
Fold off-rate compared to g7B07 (human Gal10-His [1]): 3.8 fold | koff (human Gal10-His [1]): 0.026 s⁻¹

B8: g23H11 (Fab, periplasmic extract) (Fab, V domains shown)
VH: B4 VH with R52S, T53K, F54M, E55P, H57L
VL: B1 VL
notes: as for B4
Fold off-rate compared to g7B07 (human Gal10-His [1]): 3.6 fold | koff (human Gal10-His [1]): 0.025 s⁻¹

B9: g20F04 (Fab, periplasmic extract) (Fab, V domains shown)
VH: B1 VH with P53H, V54Q, G55V
VL: B1 VL
notes: X3 library
Fold off-rate compared to g7B07 (human Gal10-His [1]): 2.3 fold | koff (human Gal10-His [1]): 0.016 s⁻¹

B10: g21C06 (Fab, periplasmic extract) (Fab, V domains shown)
VH: B3 VH with H52K, T53R, M55W
VL: B1 VL
notes: as for B3
Fold off-rate compared to g7B07 (human Gal10-His [1]): 5.2 fold | koff (human Gal10-His [1]): 0.036 s⁻¹

B11: g22C03 (Fab, periplasmic extract) (Fab, V domains shown)
VH: B1 VH with P53L, V54G, G55T, I56F
VL: B1 VL
notes: X5 library; VH assembled by inference
Fold off-rate compared to g7B07 (human Gal10-His [1]): 2.9 fold | koff (human Gal10-His [1]): 0.02 s⁻¹
